Consider one molecule from US20190336574A1 (TRUSTEES OF PRINCETON UNIVERSITY, published 2019).

One test has as its target T1, murine SND1, wild type (mouse, UniProt Q78PY7 1-910).
T1 construct: Endogenous protein of murine PyMT mammary tumor cells; also called SND1 (in PyMT tumor cells); WT shRNA-resistant murine SND1
T1 sequence (looked up): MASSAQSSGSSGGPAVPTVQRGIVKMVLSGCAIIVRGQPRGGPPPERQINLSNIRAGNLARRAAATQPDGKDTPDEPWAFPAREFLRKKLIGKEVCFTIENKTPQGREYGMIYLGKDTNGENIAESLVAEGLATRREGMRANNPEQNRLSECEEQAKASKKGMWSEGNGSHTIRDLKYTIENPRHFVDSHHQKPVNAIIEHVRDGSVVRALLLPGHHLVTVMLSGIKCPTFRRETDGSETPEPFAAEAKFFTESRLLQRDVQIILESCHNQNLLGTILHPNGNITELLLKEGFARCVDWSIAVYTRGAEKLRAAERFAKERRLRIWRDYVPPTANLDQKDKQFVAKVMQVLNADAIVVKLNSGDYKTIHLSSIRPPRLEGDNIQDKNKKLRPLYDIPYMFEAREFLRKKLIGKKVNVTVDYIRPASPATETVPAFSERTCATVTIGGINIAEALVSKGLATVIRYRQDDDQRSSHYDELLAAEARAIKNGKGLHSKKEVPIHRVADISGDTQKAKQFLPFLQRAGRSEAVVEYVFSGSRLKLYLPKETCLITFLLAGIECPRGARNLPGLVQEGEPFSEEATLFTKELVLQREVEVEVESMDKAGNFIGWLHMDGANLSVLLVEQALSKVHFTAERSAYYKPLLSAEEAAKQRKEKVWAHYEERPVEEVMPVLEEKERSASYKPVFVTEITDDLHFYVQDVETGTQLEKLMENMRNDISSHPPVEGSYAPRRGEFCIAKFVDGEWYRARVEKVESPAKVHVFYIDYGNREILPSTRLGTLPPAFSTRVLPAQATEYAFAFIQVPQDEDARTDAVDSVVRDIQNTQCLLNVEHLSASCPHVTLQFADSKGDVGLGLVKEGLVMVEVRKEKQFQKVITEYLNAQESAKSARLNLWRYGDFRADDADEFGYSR
Nature of the test: anti-MTDH co-IP from PyMT;Mtdh-/- tumor cells reconstituted with murine MTDH, western blot. Here is the method:
(FIG. 23A) Lysates from PyMT;Mtdh−/− tumor cells reconstituted with vector control, WT or mutant murine MTDH were immunoprecipitated with anti-MTDH antibody and immunoblotted for indicated proteins. Note all amino acid annotations are based on human MTDH. W394 and W401 of human MTDH correspond to W391 and W398 in murine MTDH, respectively. (FIG. 23B) Mammosphere assays were performed with PyMT;Mtdh−/− tumor cells reconstituted with indicated MTDH constructs. (FIG. 23C-E) In vivo tumor formation (FIG. 23C for tumor incidence; FIG. 23D, FIG. 23E for tumor volumes) were performed at limiting numbers using PyMT;Mtdh−/− tumor cells reconstituted with indicated WT or mutant MTDH. Statistics: (FIG. 23B) Student's t-test. Data represent mean±SEM. (FIG. 23C) Limiting dilution analysis. (FIG. 23D, FIG. 23E) Mann-Whitney test. **p<0.01, *p<0.05.
Immunoprecipitation and western blot: For in vivo immunoprecipitation (IP) experiments, cultured cells were washed in cold PBS and lysed in lysis buffer (20 mM Tris pH 7.4, 0.15 M NaCl, 1 mM EDTA, 1 mM EGTA, 1% Tx-100, 0.0025 M Na2P2O7, 1 mM β-glycerolphosphate, 1 mM Na3VO4, and 1 mM NaF) with an EDTA-free protease inhibitor mixture (Roche Applied Science) and PMSF. Cell lysates were then incubated on ice for 10 min, centrifuged, and precleared by incubating with protein A/G beads (Santa Cruz Biotechnology) for 1 h at 4° C. […]
On the technique in general: A western blot detects proteins with antibodies after separation by electrophoresis.

Test [1] concerns the target T2, murine SND1 R255E (shRNA-resistant construct) (mouse, UniProt Q78PY7 1-910).
T2 sequence (looked up): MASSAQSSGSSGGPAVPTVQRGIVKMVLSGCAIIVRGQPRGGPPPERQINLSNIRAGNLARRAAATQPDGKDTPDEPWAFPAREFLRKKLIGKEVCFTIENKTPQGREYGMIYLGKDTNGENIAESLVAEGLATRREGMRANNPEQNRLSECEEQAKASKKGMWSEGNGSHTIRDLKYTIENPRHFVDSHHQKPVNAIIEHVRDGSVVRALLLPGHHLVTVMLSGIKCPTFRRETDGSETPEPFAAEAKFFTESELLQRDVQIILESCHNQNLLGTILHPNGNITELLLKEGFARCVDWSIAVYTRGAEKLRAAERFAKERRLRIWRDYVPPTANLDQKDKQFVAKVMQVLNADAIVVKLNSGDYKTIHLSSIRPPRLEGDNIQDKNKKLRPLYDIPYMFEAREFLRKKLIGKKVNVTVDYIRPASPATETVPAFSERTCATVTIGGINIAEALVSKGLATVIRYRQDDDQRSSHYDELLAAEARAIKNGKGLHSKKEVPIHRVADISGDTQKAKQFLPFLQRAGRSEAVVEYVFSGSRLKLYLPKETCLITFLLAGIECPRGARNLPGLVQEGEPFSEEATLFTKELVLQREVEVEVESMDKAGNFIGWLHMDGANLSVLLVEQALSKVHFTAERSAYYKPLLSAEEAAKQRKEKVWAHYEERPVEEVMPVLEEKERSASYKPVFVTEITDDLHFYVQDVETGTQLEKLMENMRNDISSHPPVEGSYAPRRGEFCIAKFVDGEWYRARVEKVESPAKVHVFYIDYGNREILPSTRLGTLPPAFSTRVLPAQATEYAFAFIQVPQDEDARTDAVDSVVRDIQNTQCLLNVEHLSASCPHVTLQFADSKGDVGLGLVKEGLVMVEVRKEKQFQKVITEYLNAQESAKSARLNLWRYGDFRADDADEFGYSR
Nature of the test: co-IP (anti-MTDH) from SND1-KD PyMT;Mtdh+/+ tumor cells reconstituted with SND1 constructs, western blot.

The target in test [2] is T3, murine SND1 F250A (shRNA-resistant construct) (mouse, UniProt Q78PY7 1-910).
T3 sequence (looked up): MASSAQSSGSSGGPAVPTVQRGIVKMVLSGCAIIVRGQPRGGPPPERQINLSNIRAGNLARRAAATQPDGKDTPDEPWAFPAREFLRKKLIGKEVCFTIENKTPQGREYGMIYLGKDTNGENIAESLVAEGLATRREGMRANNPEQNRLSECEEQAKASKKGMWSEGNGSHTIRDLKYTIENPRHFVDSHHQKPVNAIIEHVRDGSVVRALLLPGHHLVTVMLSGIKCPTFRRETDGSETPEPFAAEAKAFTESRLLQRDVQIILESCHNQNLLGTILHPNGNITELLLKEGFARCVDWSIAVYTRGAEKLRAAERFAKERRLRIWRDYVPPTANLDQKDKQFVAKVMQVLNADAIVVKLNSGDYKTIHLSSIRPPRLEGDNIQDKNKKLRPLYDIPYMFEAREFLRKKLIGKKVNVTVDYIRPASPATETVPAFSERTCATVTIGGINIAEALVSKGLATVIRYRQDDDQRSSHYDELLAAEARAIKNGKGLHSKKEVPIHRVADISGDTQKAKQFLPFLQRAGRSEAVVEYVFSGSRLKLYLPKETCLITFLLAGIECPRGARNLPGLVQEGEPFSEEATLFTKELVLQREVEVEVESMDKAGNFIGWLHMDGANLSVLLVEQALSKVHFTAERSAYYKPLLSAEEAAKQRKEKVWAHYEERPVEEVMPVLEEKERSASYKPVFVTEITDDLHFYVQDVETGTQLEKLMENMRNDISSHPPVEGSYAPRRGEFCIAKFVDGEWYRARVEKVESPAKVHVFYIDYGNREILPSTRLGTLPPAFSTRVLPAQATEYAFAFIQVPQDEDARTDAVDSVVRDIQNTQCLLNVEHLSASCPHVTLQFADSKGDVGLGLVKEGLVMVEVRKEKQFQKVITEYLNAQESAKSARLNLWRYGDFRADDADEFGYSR
Described as above.

B1: murine MTDH, wild type (other, mouse, UniProt Q80WJ7 1-579, looked up)
chain: MAARSWQDELAQQAEEGSARLRELLSVGLGFLRTELGLDLGLEPKRYPGWVILVGTGALGLLLLFLLGYGWAAACAGARKKRRSPPRKREEAAPPTPAPDDLAQLKNLRSEEQKKKNRKKLPEKPKPNGRTVEVPEDEVVRNPRSITAKQAPETDKKNEKSKKNKKKSKSDAKAVQNSSRHDGKEVDEGAWETKISHREKRQQRKRDKVLTDSGSLDSTIPGIENIITVTTEQLTTASFPVGSKKNKGDSHLNVQVSNFKSGKGDSTLQVSSRLNENLTVNGGGWSEKSVKLSSQLSEEKWNSVPPASAGKRKTEPSAWTQDTGDTNANGKDWGRNWSDRSIFSGIGSTAEPVSQSTTSDYQWDVSRNQPYIDDEWSGLNGLSSADPSSDWNAPAEEWGNWVDEDRASLLKSQEPISNDQKVSDDDKEKGEGALPTGKSKKKKKKKKKQGEDNSHTQDTEDLEKDTREELPVNTSKARPKQEKACSLKTMSTSDPAEVLIKNSQPVKTLPPAISAEPSITLSKGDSDNSSSQVPPMLQDTDKPKSNAKQNSVPPSQTKSETNWESPKQIKKKKKARRET
notes: Re-expressed by lentivirus in PyMT;Mtdh-/- tumor cells; also used for the endogenous protein of PyMT;Mtdh+/+ cells (same protein); also called mouse MTDH; WT MTDH (murine form)
For the molecule B1, the binding result with murine SND1, wild type was “binds”; in test [1] it was “no binding”; in test [2], “no binding”.
